Measured values taken from paper PMC3756911 (Nature, 2013).

B2: hnRNPA1-D262N (full-length) (natural protein)
chain: MSKSESPKEPEQLRKLFIGGLSFETTDESLRSHFEQWGTLTDCVVMRDPNTKRSRGFGFVTYATVEEVDAAMNARPHKVDGRVVEPKRAVSREDSQRPGAHLTVKKIFVGGIKEDTEEHHLRDYFEQYGKIEVIEIMTDRGSGKKRGFAFVTFDDHDSVDKIVIQKYHTVNGHNCEVRKALSKQEMASASSSQRGRSGSGNFGGGRGGGFGGNDNFGRGGNFSGRGGFGGSRGGGGYGGSGDGYNGFGNDGSNFGGGGSYNNFGNYNNQSSNFGPMKGGNFGGRSSGPYGGGGQYFAKPRNQGGYGGSSSSSSYGSGRRF

Experiments:
[1] = biological target: hnRNPA1-D262V (full-length) (human, UniProt P09651-2 1-320, D262V); experiment: cross-seeded fibrillization, sedimentation analysis
[2] = biological target: B2; experiment: as above
[3] = biological target: the molecule itself; experiment: seeded fibrillization, sedimentation analysis
[4] = biological target: the molecule itself; experiment: thioflavin-T fluorescence + electron microscopy
[5] = biological target: hnRNPA2 D290V (full-length) (human, UniProt P22626-2 1-341, D290V); experiment: cross-seeded fibrillization, sedimentation analysis

B1: hnRNPA1 wild-type (full-length) (natural protein)
chain: MSKSESPKEPEQLRKLFIGGLSFETTDESLRSHFEQWGTLTDCVVMRDPNTKRSRGFGFVTYATVEEVDAAMNARPHKVDGRVVEPKRAVSREDSQRPGAHLTVKKIFVGGIKEDTEEHHLRDYFEQYGKIEVIEIMTDRGSGKKRGFAFVTFDDHDSVDKIVIQKYHTVNGHNCEVRKALSKQEMASASSSQRGRSGSGNFGGGRGGGFGGNDNFGRGGNFSGRGGFGGSRGGGGYGGSGDGYNGFGNDGSNFGGGGSYNDFGNYNNQSSNFGPMKGGNFGGRSSGPYGGGGQYFAKPRNQGGYGGSSSSSSYGSGRRF
B1: binds [1]; binds [2].

B2: binds [3].

NYNVFG [A2 D290V hexapeptide (NYNVFG)]: binds [4].

B3: hnRNPA2 wild-type (full-length) (natural protein)
chain: MEREKEQFRKLFIGGLSFETTEESLRNYYEQWGKLTDCVVMRDPASKRSRGFGFVTFSSMAEVDAAMAARPHSIDGRVVEPKRAVAREESGKPGAHVTVKKLFVGGIKEDTEEHHLRDYFEEYGKIDTIEIITDRQSGKKRGFGFVTFDDHDPVDKIVLQKYHTINGHNAEVRKALSRQEMQEVQSSRSGRGGNFGFGDSRGGGGNFGPGPGSNFRGGSDGYGSGRGFGDGYNGYGGGPGGGNFGGSPGYGGGRGGYGGGGPGYGNQGGGYGGGYDNYGGGNYGSGNYNDFGNYNQQPSNYGPMKSGNFGGSRNMGGPYGGGNYGPGGSGGSGGYGGRSRY
B3: binds [5].
